This note sets out measurements from patent publication US20260209365A1, “ANTI-COMMON GAMMA CHAIN PROTEINS AND COMPOSITIONS OF MATTER” (SINOMAB BIOSCIENCE LIMITED, priority 2023, published 2026).

Numbering of substitutions follows the chain as printed. Where two headings read alike, the source gives them in different places.

Assay [1] has as its target T1, chimpanzee γc protein (extracellular domain), purified (chimpanzee (Pan troglodytes), UniProt P31785 23-262).
T1 construct: also called chimpanzee (Pan troglodytes) γc
T1 sequence: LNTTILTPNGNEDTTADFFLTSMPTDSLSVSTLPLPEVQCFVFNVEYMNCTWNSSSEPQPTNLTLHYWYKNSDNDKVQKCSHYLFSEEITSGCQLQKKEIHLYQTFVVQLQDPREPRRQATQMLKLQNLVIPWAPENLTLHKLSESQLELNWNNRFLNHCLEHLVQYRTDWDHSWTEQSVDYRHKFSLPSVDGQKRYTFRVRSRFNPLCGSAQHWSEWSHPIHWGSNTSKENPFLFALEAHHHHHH
The assay can be described thus: ELISA, strip coated with 1 µg/ml chimpanzee γc, antibody in 5-fold dilutions from 10 to 0.00064 µg/ml, OD 450 nm. The procedure:
(§1) The ELISA strip was coated with 1 μg/ml γc protein from each species. Antibody was diluted 5-fold each from 10 μg/ml to 0.00064 μg/ml.
On the technique in general: ELISA stands for enzyme-linked immunosorbent assay.

In assay [2] the target is T2, common marmoset γc protein (extracellular domain), purified (common marmoset (Callithrix jacchus), UniProt P31785 26-262 (human entry)).
T2 construct: also called common marmoset (Callithrix jacchus) γc
T2 chain: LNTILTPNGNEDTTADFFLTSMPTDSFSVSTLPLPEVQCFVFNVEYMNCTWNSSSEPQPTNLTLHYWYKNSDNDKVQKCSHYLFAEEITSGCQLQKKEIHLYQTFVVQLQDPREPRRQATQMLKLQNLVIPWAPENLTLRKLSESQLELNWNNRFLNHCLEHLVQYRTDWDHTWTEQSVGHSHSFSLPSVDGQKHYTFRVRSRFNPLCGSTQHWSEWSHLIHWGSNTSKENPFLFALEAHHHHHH
The experiment in a line: ELISA, strip coated with 1 µg/ml common marmoset γc, antibody in 5-fold dilutions from 10 to 0.00064 µg/ml, OD 450 nm. The procedure: as §1
(§2) Humanized antibodies with back-mutation (hSM-05A and hSM-05E) were tested in the following assays. Binding affinities were investigated in the ELISA assays.

Assay [3] deals with T3, Rhesus (Macaca mulatta, UniProt A0A5F8A3G1).
T3 construct: full length, on the cell surface; the purified extracellular domain is 1.m23; also called rhesus γc protein, full length, on HEK-293 cells
T3 sequence (receptor chain): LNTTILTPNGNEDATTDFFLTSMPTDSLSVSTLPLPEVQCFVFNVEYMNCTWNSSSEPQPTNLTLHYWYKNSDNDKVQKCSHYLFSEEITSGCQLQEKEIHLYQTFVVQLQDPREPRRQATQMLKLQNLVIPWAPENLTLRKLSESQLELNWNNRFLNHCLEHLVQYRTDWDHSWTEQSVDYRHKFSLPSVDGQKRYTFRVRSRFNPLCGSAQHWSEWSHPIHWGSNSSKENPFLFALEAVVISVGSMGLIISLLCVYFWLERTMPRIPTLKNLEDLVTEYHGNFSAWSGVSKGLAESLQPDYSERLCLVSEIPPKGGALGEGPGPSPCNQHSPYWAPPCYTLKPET
The assay can be described thus: flow cytometry, FITC-hSM-05A on HEK-293 cells transfected with full-length rhesus γc, N=3. The procedure:
In brief, hSM-05A was fluorescently labelled with FITC. HEK-293 cells were transfected with the plasmids expressing the full-length γc proteins from different species for 2 days before the incubation with the fluorescent antibodies for flow cytometry analyses. […] All antibodies were administrated at 33 nM (5 μg/ml). C=non-transfected control; Hu: Humans; Rh: Rhesus monkey; Cy: Cynomolgus; Ma: Common marmoset. N=3 for all groups.
The binding specificities of humanized anti-γc antibodies to native γc proteins were further evaluated by […] binding assay. In brief, human HEK-293 cells were transfected with plasmid expressing full length γc protein from human, rhesus, cynomolgus or common marmoset. Two days later, transfected cells or non-transfected controls were incubated with FITC-conjugated hSM-05A on ice for an hour before analysis by flow cytometry.
(In flow cytometry, cells or beads pass a laser one at a time.)

In assay [4] the target is T4, rabbit γc protein (extracellular domain), purified (rabbit (Oryctolagus cuniculus)).
T4 construct: also called rabbit (Oryctolagus cuniculus) γc
T4 chain: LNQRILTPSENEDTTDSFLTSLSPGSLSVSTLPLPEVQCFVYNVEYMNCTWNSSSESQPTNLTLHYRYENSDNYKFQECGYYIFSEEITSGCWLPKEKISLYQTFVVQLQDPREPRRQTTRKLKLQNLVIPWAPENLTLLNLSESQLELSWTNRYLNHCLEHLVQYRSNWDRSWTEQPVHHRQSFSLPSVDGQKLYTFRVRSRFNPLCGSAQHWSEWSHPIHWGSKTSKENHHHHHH
The experiment in a line: ELISA, strip coated with 1 µg/ml rabbit γc, antibody in 5-fold dilutions from 10 to 0.00064 µg/ml, OD 450 nm. The procedure: as §1, §2

In assay [5] the target is T5, cynomolgus γc protein (extracellular domain), purified (cynomolgus (Macaca fascicularis), UniProt P31785 23-254 (human entry)).
T5 construct: Purchased from Sino Biological or in-house; also called cynomolgus (Macaca fascicularis) γc
T5 chain: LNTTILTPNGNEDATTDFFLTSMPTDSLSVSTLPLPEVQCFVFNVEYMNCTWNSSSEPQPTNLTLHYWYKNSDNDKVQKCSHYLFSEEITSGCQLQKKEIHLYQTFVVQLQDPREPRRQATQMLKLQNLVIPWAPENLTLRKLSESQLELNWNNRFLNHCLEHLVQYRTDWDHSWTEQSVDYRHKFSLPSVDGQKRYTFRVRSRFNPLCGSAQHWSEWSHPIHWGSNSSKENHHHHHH
The experiment in a line: ELISA, strip coated with 1 µg/ml cynomolgus γc, antibody in 5-fold dilutions from 10 to 0.00064 µg/ml, OD 450 nm; curve near baseline up to about 0.08 µg/ml, rises to about 1.35 at 10 µg/ml, no upper plateau. The procedure:
as §1

The target of assay [6] is T6, rhesus γc protein (extracellular domain), purified (rhesus (Macaca mulatta), UniProt P31785 23-254 (human entry)).
T6 construct: also called rhesus (Macaca mulatta) γc
T6 chain: T5 chain with K97E
The experiment in a line: ELISA, strip coated with 1 µg/ml rhesus γc, antibody in 5-fold dilutions from 10 to 0.00064 µg/ml, OD 450 nm. The procedure:
as §1

Assay [7] concerns the target T7, human γc protein (extracellular domain), purified (human (Homo sapiens), UniProt P31785 23-262).
T7 construct: Either purchased from Sino Biological or in-house generated; also called human common gamma chain; CD132; not shown: which was used i
T7 sequence: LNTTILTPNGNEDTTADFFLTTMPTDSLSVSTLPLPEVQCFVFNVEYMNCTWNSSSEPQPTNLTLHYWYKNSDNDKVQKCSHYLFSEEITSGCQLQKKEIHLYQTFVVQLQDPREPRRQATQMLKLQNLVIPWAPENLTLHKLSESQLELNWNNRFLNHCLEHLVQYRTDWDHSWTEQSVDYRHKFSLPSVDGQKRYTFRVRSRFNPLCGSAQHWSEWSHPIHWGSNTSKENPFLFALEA
The assay can be described thus: ELISA, strip coated with 1 µg/ml human γc, antibody in 5-fold dilutions from 10 to 0.00064 µg/ml, OD 450 nm. The procedure:
as §1

Assay [8] concerns the target T5, cynomolgus γc protein (extracellular …). The assay can be described thus: ELISA, strip coated with 1 µg/ml cynomolgus γc, antibody in 5-fold dilutions from 10 to 0.00064 µg/ml, OD 450 nm; curve rises to about 1.6 at 10 µg/ml, no upper plateau. As for the experimental part: as §1, §2
Assay [9] deals with T7, human γc protein (extracellular …). The experiment in a line: ELISA, strip coated with 1 µg/ml human γc, antibody in 5-fold dilutions from 10 to 0.00064 µg/ml, OD 450 nm. As for the experimental part: as §1, §2
The source holds these as a separate data set.

In assay [10] the target is T6, rhesus γc protein (extracellular …). The assay can be described thus: ELISA, strip coated with 1 µg/ml rhesus γc, antibody in 5-fold dilutions from 10 to 0.00064 µg/ml, OD 450 nm; curve near baseline up to about 0.4 µg/ml, rises to about 0.8 at 10 µg/ml, no upper plateau. The procedure: as §1, §2
For assay [11], the target named is T4, rabbit γc protein (extracellular …). The experiment in a line: ELISA, strip coated with 1 µg/ml rabbit γc, antibody in 5-fold dilutions from 10 to 0.00064 µg/ml, OD 450 nm. As for the experimental part:
as §1

B1: hSM-05A, humanized anti-γc antibody with back-mutation (antibody, V domains shown)
VH: QVQLVQSGAEVLKPGASVKVSCKASGYTFTEYTMHWVKQARGQRLEWIGGIDPYNGGATYNQRFKGKATLTTDTSTSTAYMELRNLRSDDTAVYYCARRRLYYGNALDYWGQGTLVTVSS
VL: DIVMTQSPLSLPVTPGEQASISCRSSQSLVHSNGNTYLHWYLQKPGQSPQLLIYKVSSRFSGVPDRFSGSGSGTDFTLKISRVEAEDVGVYFCSQTTHVPFTFGSGTKLEIKR
notes: Full-length humanized antibody; also called humanized (h) SM-05A; hbSM-05A
For orientation: EC50 means the midpoint of the concentration-response curve. Low readings indicate an effect from little substance, high ones a need for much substance. Consider B1, for which the EC50 came to 0.06 µg/mL in assay [1], 0.04 µg/mL in assay [2], 9.56 µg/mL in assay [5] and 0.02 µg/mL in assay [7]. Moreover, the binding result in [3] was “no binding (tested: 5 µg/ml (33 nM))”; in assay [4], “no binding (tested: 10 µg/ml)”; in assay [6] it was “no binding (tested: 10 µg/ml)”.

B2: hSM-05E, humanized anti-γc antibody with back-mutation (antibody, V domains shown)
VH: B1 VH with Y54N, N55T, A58V, R63K, L101R, N105Y
VL: B1 VL with L29I, H39E, S58N, T96S, T102M
notes: Full-length humanized antibody; also called humanized SM-05E; hbSM-05E
For B2, the EC50 in [8] came out at 5.78 µg/mL; in [1], 0.17 µg/mL; in assay [9], 0.02 µg/mL; in [2], 0.17 µg/mL; in [10], 6.3 µg/mL. Also, in [11], the binding result is recorded as “no binding (tested: 10 µg/ml)”.
